Measured values taken from doi:10.1101/2025.03.26.645513v1.

System: CC(=O)OC[C@H](N)C(=O)O
Assay: purified protein
Details: 30 mM Na2S, MOPS, 37 °C, no glycerol, cooperative

Substance NgCysK (Neisseria gonorrhoeae FA 1090) has a K0.5 of 1.541 ± 0.306 mM.
